The target of this assay is GFP [GFP: P42212]. In words: sandwich cD-IPCR: GFP in buffer captured by anti-GFP pAb on plate, bound cDNA display quantified by qPCR (ΔCt).

Sequence of cDNA display presenting anti-GFP VHH (LaG-16) (VHH): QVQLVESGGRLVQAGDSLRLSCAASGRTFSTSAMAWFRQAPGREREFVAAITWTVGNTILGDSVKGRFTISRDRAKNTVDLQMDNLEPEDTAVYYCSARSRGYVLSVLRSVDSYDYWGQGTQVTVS

Consider “cDNA display presenting anti-GFP VHH (LaG-16)”, for which the lowest detected GFP concentration (sandwich cD-IPCR) turned out to be 10 ng/mL.

The values above are taken from US20210381026A1.
